Assay results: IntAct's records for PubMed 36376753

B1: SNF1-related protein kinase catalytic subunit alpha KIN10 (Arabidopsis thaliana (Mouse-ear cress)), Q38997 (parent)
chain: MDGSGTGSRSGVESILPNYKLGRTLGIGSFGRVKIAEHALTGHKVAIKILNRRKIKNMEMEEKVRREIKILRLFMHPHIIRLYEVIETPTDIYLVMEYVNSGELFDYIVEKGRLQEDEARNFFQQIISGVEYCHRNMVVHRDLKPENLLLDSKCNVKIADFGLSNIMRDGHFLKTSCGSPNYAAPEVISGKLYAGPEVDVWSCGVILYALLCGTLPFDDENIPNLFKKIKGGIYTLPSHLSPGARDLIPRMLVVDPMKRVTIPEIRQHPWFQAHLPRYLAVPPPDTVQQAKKIDEEILQEVINMGFDRNHLIESLRNRTQNDGTVTYYLILDNRFRASSGYLGAEFQETMEGTPRMHPAESVASPVSHRLPGLMEYQGVGLRSQYPVERKWALGLQSRAHPREIMTEVLKALQDLNVCWKKIGHYNMKCRWVPNSSADGMLSNSMHDNNYFGDESSIIENEAAVKSPNVVKFEIQLYKTRDDKYLLDLQRVQGPQFLFLDLCAAFLAQLRVL
partner: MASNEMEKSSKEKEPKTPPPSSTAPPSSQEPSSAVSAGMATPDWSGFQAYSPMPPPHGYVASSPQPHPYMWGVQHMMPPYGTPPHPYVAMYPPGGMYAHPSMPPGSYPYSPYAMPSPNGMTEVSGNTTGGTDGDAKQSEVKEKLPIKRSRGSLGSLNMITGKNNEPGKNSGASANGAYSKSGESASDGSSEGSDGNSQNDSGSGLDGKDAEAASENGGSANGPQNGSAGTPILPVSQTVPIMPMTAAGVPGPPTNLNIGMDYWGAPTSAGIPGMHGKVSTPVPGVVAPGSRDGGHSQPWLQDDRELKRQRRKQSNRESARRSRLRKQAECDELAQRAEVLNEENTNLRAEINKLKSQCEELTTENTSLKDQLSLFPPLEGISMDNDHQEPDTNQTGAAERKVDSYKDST
B2: SNF1-related protein kinase catalytic subunit alpha KIN10 (Arabidopsis thaliana (Mouse-ear cress)), Q38997 (parent)
chain: B1 chain
partner: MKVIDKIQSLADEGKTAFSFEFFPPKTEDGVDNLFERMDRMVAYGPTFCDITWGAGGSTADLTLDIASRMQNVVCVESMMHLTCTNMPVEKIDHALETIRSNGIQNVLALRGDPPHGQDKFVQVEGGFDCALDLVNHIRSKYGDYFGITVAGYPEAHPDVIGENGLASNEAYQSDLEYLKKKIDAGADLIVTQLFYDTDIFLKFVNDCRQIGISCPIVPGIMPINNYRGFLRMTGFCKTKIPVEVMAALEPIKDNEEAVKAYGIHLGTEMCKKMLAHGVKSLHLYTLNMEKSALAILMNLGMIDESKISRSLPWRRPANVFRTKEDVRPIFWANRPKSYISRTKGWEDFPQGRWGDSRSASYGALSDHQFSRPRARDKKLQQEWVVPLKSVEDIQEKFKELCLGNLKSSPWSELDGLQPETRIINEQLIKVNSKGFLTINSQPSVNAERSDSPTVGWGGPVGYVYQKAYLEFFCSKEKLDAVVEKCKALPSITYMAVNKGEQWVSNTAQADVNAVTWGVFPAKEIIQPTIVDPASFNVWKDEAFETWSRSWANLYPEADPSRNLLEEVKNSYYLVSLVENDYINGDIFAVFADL
B3: SNF1-related protein kinase catalytic subunit alpha KIN10 (Arabidopsis thaliana (Mouse-ear cress)), Q38997 (parent)
chain: B1 chain
partner: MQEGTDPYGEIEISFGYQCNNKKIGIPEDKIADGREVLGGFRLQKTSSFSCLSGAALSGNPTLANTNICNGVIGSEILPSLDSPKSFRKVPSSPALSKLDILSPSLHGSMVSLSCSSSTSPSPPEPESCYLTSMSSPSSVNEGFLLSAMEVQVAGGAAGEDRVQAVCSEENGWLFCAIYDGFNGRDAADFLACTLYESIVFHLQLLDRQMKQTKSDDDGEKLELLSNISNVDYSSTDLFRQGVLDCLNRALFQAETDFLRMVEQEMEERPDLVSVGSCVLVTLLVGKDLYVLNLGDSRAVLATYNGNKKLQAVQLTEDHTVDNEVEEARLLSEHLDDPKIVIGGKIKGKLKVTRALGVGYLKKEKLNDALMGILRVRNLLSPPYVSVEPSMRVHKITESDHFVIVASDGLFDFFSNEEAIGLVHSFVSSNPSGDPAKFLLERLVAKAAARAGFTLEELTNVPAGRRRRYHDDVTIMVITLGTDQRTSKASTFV
B4: SNF1-related protein kinase catalytic subunit alpha KIN10 (Arabidopsis thaliana (Mouse-ear cress)), Q38997 (parent)
chain: B1 chain
partner: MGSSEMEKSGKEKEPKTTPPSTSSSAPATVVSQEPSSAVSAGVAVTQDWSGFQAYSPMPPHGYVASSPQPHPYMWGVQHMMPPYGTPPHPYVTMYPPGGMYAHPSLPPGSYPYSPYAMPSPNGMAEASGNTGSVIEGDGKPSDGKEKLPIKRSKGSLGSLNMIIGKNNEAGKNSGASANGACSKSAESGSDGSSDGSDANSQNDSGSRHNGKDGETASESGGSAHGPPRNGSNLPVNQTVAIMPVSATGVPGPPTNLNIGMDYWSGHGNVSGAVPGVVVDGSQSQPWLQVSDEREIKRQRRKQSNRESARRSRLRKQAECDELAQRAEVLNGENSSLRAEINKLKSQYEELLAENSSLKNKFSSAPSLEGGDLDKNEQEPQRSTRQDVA

Variants of: B1
Settings: with bzp16_arath BZIP16, Q501B2

Variant	effect of a mutation on the interaction
K48M	disrupting interaction strength

Variants of: B2
Settings: with mthr2_arath MTHFR2, O80585

Variant	effect of a mutation on the interaction
K48M	disrupting interaction strength

Variants of: B3
Settings: with p2c40, Q9LUS8

Variant	effect of a mutation on the interaction
K48M	disrupting interaction strength

Variants of: B4
Settings: with bzp68_arath BZIP68, Q84LG2

Variant	effect of a mutation on the interaction
K48M	disrupting interaction strength
